Results reported in publication doi:10.1101/2021.12.16.472899 (bioRxiv, 2021).

B1: PnsB1 (natural protein, UniProt Q9S9N6 45-461, looked up)
chain: VNLKKKNNPWLDPFDSGEDPDNEYGSLFADGKQDEDPRPPDNPDNPYGFLKFPKGYTVELASLPLKIRGDVRRCCCVISGGVYENLLFFPTIQLIKDRYPGVQVDILTTERGKQTYELNKNVRWANVYDPDDHWPEPAEYTDMIGLLKGRYYDMVLSTKLAGLGHAAFLFMTTARDRVSYIYPNVNSAGAGLMLSETFTAENTNLSELGYSMYTQMEDWLGRPFRSVPRTPLLPLRVSISRKVKEVVAAKYRNAGAVTGKFIVIHGIESDSKASMQSKGDADSLLSLEKWAKIIKGVRGFKPVFVIPHEKERENVEDFVGDDTSIVFITTPGQLAALINDSAGVIATNTAAIQLANARDKPCIGLFSSEEKGKLFVPYAEEKSNCVIIASKTGKLADIDIGTVKNAMQVFEGSLALV
B2: PnsB3 (natural protein, UniProt Q9LU21 49-204, looked up)
chain: AISTAPASQPPAADEPDEPPAVDFAFVHSVLLPDGTPDVHWRRANGGQKLRDIMLDSNIELYGPYSKPLSNCAGVGTCATCMVEIVNGKELLNPRTDIEKEKLKRKPKNWRLACQTNVGNPDSTGLVVIQQLPEWKAHEWNIPKNIPNDDDLETST
B3: PnsL2 (natural protein, UniProt Q9XI73 69-190, looked up)
chain: WGTRSFIKEKYFMPGLSPEDAAARIKQTAEGLRDMREMLDHMSWRYVIFYIRLKQAYLSQDLTNAMNILPESRRNDYVQAANELVENMSELDFYVRTPKVYESYLYYEKTLKSIDNVVEFLA
B4: PnsL1 (natural protein, UniProt O80634 81-238, looked up)
chain: AEEIPKSYSPFVDREDGYSYYYPSDWREFDFRAHDSAFKDRYLQLQNVRVRFIPTEKNDIHEVGPMEEVVYDLVKHKFAAPNQVATIYDMKERVEDGKNYYTFEYGLRTPIYATTSFATVAVGNNRYYTLIVGANERRWRKVKKQLQVVADSLKILQI
B5: PnsL5 (natural protein)
chain: not shown
B6: Lhca6 (natural protein, UniProt Q8LCQ4 34-270, looked up)
chain: SSTGGRLMRERLVVVRAGKEVSSVCEPLPPDRPLWFPGSSPPEWLDGSLPGDFGFDPLGLGSDPDTLKWFAQAELIHSRWAMLAVTGIIIPECLERLGFIENFSWYDAGSREYFADSTTLFVAQMVLMGWAEGRRWADLIKPGSVDIEPKYPHKVNPKPDVGYPGGLWFDFMMWGRGSPEPVMVLRTKEIKNGRLAMLAFLGFCFQATYTSQDPIENLMAHLADPGHCNVFSAFTSH
B7: Lhca5 (natural protein, UniProt Q9C639 33-256, looked up)
chain: AAGGGINPTVAVERATWLPGLNPPPYLDGNLAGDYGFDPLGLGEDPESLKWYVQAELVHSRFAMLGVAGILFTDLLRTTGIRNLPVWYEAGAVKFDFASTKTLIVVQFLLMGFAETKRYMDFVSPGSQAKEGSFFFGLEAALEGLEPGYPGGPLLNPLGLAKDVQNAHDWKLKEIKNGRLAMMAMLGFFVQASVTHTGPIDNLVEHLSNPWHKTIIQTLFTSTS
B8: Lhca2 (natural protein, UniProt Q9SYW8 44-257, looked up)
chain: RAVAADPDRPIWFPGSTPPEWLDGSLPGDFGFDPLGLSSDPDSLKWNVQAEIVHCRWAMLGAAGIFIPEFLTKIGILNTPSWYTAGEQEYFTDKTTLFVVELILIGWAEGRRWADIIKPGSVNTDPVFPNNKLTGTDVGYPGGLWFDPLGWGSGSPAKLKELRTKEIKNGRLAMLAVMGAWFQHIYTGTGPIDNLFAHLADPGHATIFAAFTPK
B9: PnsB2 (natural protein, UniProt Q94AQ8 18-348, looked up)
chain: SSISAPQTQTINTEKLEDKFGRKGIKFSESNNIPMVELKVRNGSSLKLSLSDAHVLSYKPKVYWKDEGFEEVLYTVDGDESRGGVGVVIVNGEEPKGGSSVISGCDWSVKDTDSDAIDALQIELSCTAGVLDITYIVSLYPVSMATALVVKNNGRKPVTLKPGIMSYLRFKKRSGAGIQGLKGCSYCPNPPLSSPFELLSPSEAMKAESSGWFGSEEGEKPGIWAVEDSVITLLEKKMSRIYGAPPAERLKAVYNTPPSKFETIDQGRGLFFRMIRIGFEEMYVGSPGSMWDKYGKQHYFVCTGPTSMLVPVDVASGETWRGAMVIEHDNL
B10: NdhD (natural protein, UniProt P26288 1-500, looked up)
chain: MNDFPWLTIIVVFPISAGSLMLFLPHRGNKVNKWYTICICILELLLTTYAFCYNFKMDDPLIQLSEDYKWIDFFDFYWRMGIDGLSIGTILLTGFITTLATLAAFPVTRDSRFFHFLMLAMYSGQIGSFSSRDLLLFFIMWELELIPVYLLLSMWGGKKRLYSATKFILYTAGSSIFLLIGVLGISLYGSNEPTLNLELLANKSYPVTLEILFYIGFLIAFAVKSPIIPLHTWLPDTHGEAHYSTCMLLAGILLKMGAYGLVRINMELLPHAHSMFSPWLLVVGTIQIIYAASTSPGQRNLKKRIAYSSVSHMGFIIIGISSITDPGLNGAILQIISHGFIGAALFFLAGTSYDRIRLVYLDEMGGMAISIPKIFTMFTILSMASLALPGMSGFIAEFIVFFGIITSQKYFLISKIFIIFVMAIGMILTPIYLLSMLRQMFYGYKLINIKNFSFFDSGPRELFLSISILLPIIGIGIYPDFVLSLASDKVESILSNYFYG

Assays:
Experiment in all cases: cryo-EM structure
NdhD = target: B10
NdhF = NdhF (Arabidopsis thaliana (endogenous in the …, UniProt P56752 1-746))
PnsB1 = target: B1
PnsB2 = target: B9
PnsL1 = target: B4
NdhA = target: T1, NdhA (Arabidopsis thaliana (endogenous in the …, UniProt Q37165 1-360))
T1 sequence (looked up): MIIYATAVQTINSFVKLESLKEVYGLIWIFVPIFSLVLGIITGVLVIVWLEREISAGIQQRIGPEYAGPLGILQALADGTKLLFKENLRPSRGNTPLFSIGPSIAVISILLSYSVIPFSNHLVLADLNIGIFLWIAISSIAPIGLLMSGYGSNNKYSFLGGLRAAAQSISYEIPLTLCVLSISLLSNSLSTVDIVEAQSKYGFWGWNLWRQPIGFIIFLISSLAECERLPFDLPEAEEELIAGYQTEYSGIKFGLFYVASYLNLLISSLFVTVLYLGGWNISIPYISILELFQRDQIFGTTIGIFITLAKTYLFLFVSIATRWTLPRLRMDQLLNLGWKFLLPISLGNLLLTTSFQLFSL

Chain of NdhF (Arabidopsis thaliana (P56752 whole entry): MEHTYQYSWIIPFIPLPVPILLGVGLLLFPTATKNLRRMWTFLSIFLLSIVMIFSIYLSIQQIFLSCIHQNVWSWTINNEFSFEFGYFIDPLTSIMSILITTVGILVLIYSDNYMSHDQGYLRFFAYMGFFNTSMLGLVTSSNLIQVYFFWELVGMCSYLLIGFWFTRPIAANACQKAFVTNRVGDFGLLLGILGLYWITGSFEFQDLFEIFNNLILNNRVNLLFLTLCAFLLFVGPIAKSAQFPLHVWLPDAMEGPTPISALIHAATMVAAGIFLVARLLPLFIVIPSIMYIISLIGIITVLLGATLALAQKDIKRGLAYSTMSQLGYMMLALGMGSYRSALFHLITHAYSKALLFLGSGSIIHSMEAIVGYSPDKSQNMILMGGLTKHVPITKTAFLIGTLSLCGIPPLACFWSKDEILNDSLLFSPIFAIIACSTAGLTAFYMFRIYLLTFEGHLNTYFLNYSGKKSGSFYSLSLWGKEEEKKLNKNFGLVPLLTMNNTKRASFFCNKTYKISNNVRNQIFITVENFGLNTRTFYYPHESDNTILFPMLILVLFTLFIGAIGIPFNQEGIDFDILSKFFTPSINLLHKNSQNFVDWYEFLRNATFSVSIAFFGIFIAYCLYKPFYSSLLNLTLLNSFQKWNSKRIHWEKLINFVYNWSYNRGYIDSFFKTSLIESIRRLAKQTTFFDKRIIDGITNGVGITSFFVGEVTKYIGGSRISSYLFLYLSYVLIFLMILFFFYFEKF

B1: binds (NdhD); binds (NdhF).

B2: binds (PnsB1); binds (NdhF); binds (PnsB2).

B3: binds (PnsL1); binds (NdhA).

B4: binds (NdhA).

B5: binds (NdhD).

B6: binds (NdhF); binds (PnsB2).

B7: binds (PnsB1).

B8: binds (NdhF).

B9: binds (NdhF).

B10: binds (NdhF).
